Results on three molecules are retold here after patent US20050142135A1 (UNIVERSITY OF KENTUCKY RESEARCH FOUNDATION, published 2005).

In one assay the target is T1, human FSH (human, UniProt P01215 25-116; P01225 19-129).
T1 construct: heterodimer, purchased from the National Hormone and Pituitary Program; also called follicle stimulating hormone
The experiment in a line: 125I-FSH competition binding on HEK293 cells, Scatchard. As for the experimental part:
The Kd values were determined by Scatchard plots. Truncated exodomain was solubilized in Nonidet P-40 and assayed for hormone binding as described previously. For intracellular cAMP assay, cells were washed twice with Dulbecco's modified Eagle's media and incubated in the media containing isobutylmethylxanthine (0.1 mg/ml) for 15 minutes. […] After removing the media, the cells were rinsed once with fresh media without isobutylmethylxanthine, lysed in 70% ethanol, freeze-thawed in liquid nitrogen, and scraped. After pelleting cell debris at 16,000×g for 10 minutes at 4° C., the supernatant was collected, dried under vacuum and resuspended in 10 μl of the cAMP assay buffer, which was provided by the manufacturer. cAMP concentrations were determined with an ¹²⁵I-cAMP assay kit (Amersham) following the manufacturer's instruction and validated for use in our laboratory. Exoloop 3 of FSHR was modeled based on the crystal structure of rhodopsin as a template.

In assay [1] the target is T2, human LH receptor, wild type (human, UniProt P22888 27-699).
T2 construct: whole, on cells; stably expressed in HEK 293 cells; This holds for all LHR mutants and LHR peptides below; also called LH/CG receptor
The experiment in a line: competition of 125I-hCG binding to cells expressing LHR. As to the method:
The Kd values were determined by Scatchard plots. For intracellular cAMP assay, cells were washed twice with Dulbecco's modified Eagle's media and incubated in the media containing isobutylmethylxanthine (0.1 mg/ml) for 15 minutes. Increasing concentrations of hormone were then added and the incubation was continued for 45 minutes at 37° C. After removing the media, the cells were rinsed once with fresh media without isobutylmethylxanthine, lysed in 70% ethanol, freeze-thawed in liquid nitrogen, and scraped.

Changes are numbered by the printed parent chain. Numbers in names are those of the source.

T2 sequence (P22888 27-699): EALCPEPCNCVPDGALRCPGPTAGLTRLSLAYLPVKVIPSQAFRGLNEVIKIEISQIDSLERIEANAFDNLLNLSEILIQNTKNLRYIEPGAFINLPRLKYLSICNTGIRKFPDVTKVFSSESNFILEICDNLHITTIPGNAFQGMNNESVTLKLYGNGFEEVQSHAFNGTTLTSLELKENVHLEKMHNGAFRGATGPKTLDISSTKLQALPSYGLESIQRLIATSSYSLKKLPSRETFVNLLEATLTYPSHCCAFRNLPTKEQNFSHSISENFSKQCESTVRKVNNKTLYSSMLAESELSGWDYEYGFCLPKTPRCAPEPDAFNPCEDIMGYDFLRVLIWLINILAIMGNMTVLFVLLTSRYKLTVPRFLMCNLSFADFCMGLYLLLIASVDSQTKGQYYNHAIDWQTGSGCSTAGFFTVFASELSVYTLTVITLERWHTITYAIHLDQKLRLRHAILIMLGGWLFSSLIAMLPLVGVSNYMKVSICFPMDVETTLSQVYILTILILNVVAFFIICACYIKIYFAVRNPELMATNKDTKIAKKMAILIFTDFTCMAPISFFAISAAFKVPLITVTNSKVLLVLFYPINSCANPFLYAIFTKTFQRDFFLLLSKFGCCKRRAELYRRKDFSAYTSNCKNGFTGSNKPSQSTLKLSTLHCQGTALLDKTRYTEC

B1: FSHR^K590F (receptor)
chain: CHHRICHCSNRVFLCQESKVTEIPSDLPRNAIELRFVLTKLRVIQKGAFSGFGDLEKIEISQNDVLEVIEADVFSNLPKLHEIRIEKANNLLYINPEAFQNLPNLQYLLISNTGIKHLPDVHKIHSLQKVLLDIQDNINIHTIERNSFVGLSFESVILWLNKNGIQEIHNCAFNGTQLDELNLSDNNNLEELPNDVFHGASGPVILDISRTRIHSLPSYGLENLKKLRARSTYNLKKLPTLEKLVALMEASLTYPSHCCAFANWRRQISELHPICNKSILRQEVDYMTQARGQRSSLAEDNESSYSRGFDMTYTEFDYDLCNEVVDVTCSPKPDAFNPCEDIMGYNILRVLIWFISILAITGNIIVLVILTTSQYKLTVPRFLMCNLAFADLCIGIYLLLIASVDIHTKSQYHNYAIDWQTGAGCDAAGFFTVFASELSVYTLTAITLERWHTITHAMQLDCKVQLRHAASVMVMGWIFAFAAALFPIFGISSYMKVSICLPMDIDSPLSQLYVMSLLVLNVLAFVVICGCYIHIYLTVRNPNIVSSSSDTRIAKRMAMLIFTDFLCMAPISFFAISASLKVPLITVSKAFILLVLFHPINSCANPFLYAIFTKNFRRDFFILLSKCGCYEMQAQIYRTETSSTVHNTHPRNGHCSSAPRVTSGSTYILVPLSHLAQN
In the assay with human FSH, B1 returned a Kd of 50 nM.

B2: FSHR^K590L (receptor)
chain: B1 chain with F591L
In the assay with human FSH, B2 came in with a dissociation constant Kd of 7.2 nM.

B3: hCG (ligand)
chain 1: not shown
chain 2: SKEPLRPRCRPINATLAVEKEGCPVCITVNTTICAGYCPTMTRVLQGVLPALPQVVCNYRDVRFESIRLPGCPRGVNPVVSYAVALSCQCALCRRSTTDCGGPKDHPLTCDDPRFQDSSSSKAPPPSLPSPSRLPGPSDTPILPQ
notes: purchased from the National Hormone and Pituitary Program; also called human chorionic gonadotropin
B3: the “potency relative to LHR^exo3 in inhibiting ^125I-hCG binding to LHR” value in assay [1] is greater than 10000 fold.
